These results are taken from patent US20160331662A1 (UAB RESEARCH FOUNDATION, published 2016).

B1: iSRCR1 (Deglycosylated) (receptor)
chain: not shown
notes: domain: SRCR1; also called deglycosylated iSRCR1
B2: iSRCR1 (receptor, not shown: small tags and cut ends)
chain: not shown
notes: domain: SRCR1; also called SRCRs; iSRCRs
B3: iSRCR123 (Deglycosylated) (receptor)
chain: not shown
notes: domain: SRCR123; also called deglycosylated iSRCR123
B4: FL^SspB (S. gordonii DL1 SspB, residues 39-1433) (other)
chain: DEVTETTSTSTVEVATTGNPATNLPEAQGEMSQVAKESQAKAGSKESALPVEVSSADLDKAVADAKSAGVKVVQDETKDKGTATTATDNAQKQDEIKSDYAKQAEEIKTTTEAYKKEVAAHQAETDKINAENKAADDKYQKDLKSHQEEVEKINTANATAKAEYEAKLAQYQKDLATVKKANEDSQQDYQNKLSAYQTELARVQKANAEAKEAYEKAVKENTAKNEALKVENEAIKQRNETAKATYEAAMKQYEADLAAIKKANEDNDADYQAKLAAYQTELARVQKANAEAKEAYDKAVKENTAKNTAIQAENEAIKQRNETAKATYDAAVKKYEADLAAVKQANATNEADYQAKLAAYQTELARVQKANADAKATYEKAVEDNKAKNAAIKAENEEIKQRNAVAKTDYEAKLAKYEADLAKYKKEFAAYTAALAEAESKKKQDGYLSEPRSQSLNFKSEPNAIRTIDSSVHQYGQQELDALVKSWGISPTNPDRKKSRAYSYFNAINSNNTYAKLVLEKDKPVDVTYTGLKNSSFNGKKISKVVYTYTLKETGFNDGTKMTMFASSDPTVTAWYNDYFTSTNINVKVKFYDEEGQLMNLTGGLVNFSSLNRGNGSGAIDKDAIESVRNFNGRYIPISGSSIKIHENNSAYADSSNAEKSLGARWNTSEWDTTSSPNNWYGAIVGEITQSEISFNMASSKSGNIWFAFNSNINAIGVPTKPVAPTAPTQPMYETEKPLEPAPVAPSYENEPTPPVKTPDQPEPSKPEEPTYETEKPLEPAPVAPSYENEPTPPVKTPDQPEPSKPEEPNYETEKPLEPAPVAPSYENEPTPPVKIPDQPEPSKPEEPTYDPLPTPPLAPTPKQLPTPPVVPTVHFHYSSLLAQPQINKEIKNEDGVDIDRTLVAKQSIVKFELKTEALTAGRPKTTSFVLVDPLPTGYKFDLDATKAASTGFDTTYDEASHTVTFKATDETLATYNADLTKPVETLHPTVVGRVLNDGATYTNNFTLTVNDAYGIKSNVVRVTTPGKPNDPDNPNNNYIKPTKVNKNKEGLNIDGKEVLAGSTNYYELTWDLDQYKGDKSSKEAIQNGFYYVDDYPEEALDVRPDLVKVADEKGNQVSGVSVQQYDSLEAAPKKVQDLLKKANITVKGAFQLFSADNPEEFYKQYVATGTSLVITDPMTVKSEFGKTGGKYENKAYQIDFGNGYATEVVVNNVPKITPKKDVTVSLDPTSENLDGQTVQLYQTFNYRLIGGLIPQNHSEELEDYSFVDDYDQAGDQYTGNYKTFSSLNLTMKDGSVIKAGTDLTSQTTAETDATNGIVTVRFKEDFLQKISLDSPFQAETYLQMRRIAIGTFENTYVNTVNKVAYASNTVRTTTPIPRTPDKPTPIPTPKPKDP
notes: range 39-1433

Test [1] concerns the target B4. Nature of the test: SPR, analyte over ligand deglycosylated on the CM5 chip, 1:1 Langmuir model. Background: Surface plasmon resonance follows binding to a sensor surface in real time, without labels.
Test [2] deals with T1, C123^AgI/II (Streptococcus mutans UA159, UniProt P23504 1000-1486).
T1 construct: domain: C123
T1 sequence: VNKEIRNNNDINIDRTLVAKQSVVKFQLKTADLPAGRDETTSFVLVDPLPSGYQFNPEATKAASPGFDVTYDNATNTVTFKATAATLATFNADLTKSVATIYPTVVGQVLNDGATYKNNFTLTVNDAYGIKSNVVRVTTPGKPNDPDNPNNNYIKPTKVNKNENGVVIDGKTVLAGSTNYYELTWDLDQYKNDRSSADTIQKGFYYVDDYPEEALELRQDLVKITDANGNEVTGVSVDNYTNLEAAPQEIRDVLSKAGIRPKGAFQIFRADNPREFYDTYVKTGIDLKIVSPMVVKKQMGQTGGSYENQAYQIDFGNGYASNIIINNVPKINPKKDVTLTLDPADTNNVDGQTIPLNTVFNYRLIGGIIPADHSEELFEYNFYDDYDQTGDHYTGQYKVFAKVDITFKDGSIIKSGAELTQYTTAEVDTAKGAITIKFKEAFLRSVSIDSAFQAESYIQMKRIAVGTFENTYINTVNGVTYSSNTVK
The test is described as above.

For test [3], the target named is T2, A3VP1^AgI/II (Streptococcus mutans UA159, UniProt P23504 386-874).
T2 construct: domain: A3VP1; also called A3VP1 of AgI/II
T2 sequence: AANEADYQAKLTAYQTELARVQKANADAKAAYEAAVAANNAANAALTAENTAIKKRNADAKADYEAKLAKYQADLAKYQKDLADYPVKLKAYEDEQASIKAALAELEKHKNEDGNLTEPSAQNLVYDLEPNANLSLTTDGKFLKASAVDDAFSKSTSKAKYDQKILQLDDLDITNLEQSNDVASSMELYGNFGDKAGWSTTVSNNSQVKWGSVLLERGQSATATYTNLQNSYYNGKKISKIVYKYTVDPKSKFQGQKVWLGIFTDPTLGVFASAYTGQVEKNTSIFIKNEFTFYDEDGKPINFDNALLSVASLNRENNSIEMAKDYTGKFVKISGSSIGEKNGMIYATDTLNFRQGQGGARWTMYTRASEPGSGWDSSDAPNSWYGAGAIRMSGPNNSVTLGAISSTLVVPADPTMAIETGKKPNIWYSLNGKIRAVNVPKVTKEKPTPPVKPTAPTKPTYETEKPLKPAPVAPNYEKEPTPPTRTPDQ
Described as above.

The target in test [4] is T3, FL^AgI/II (S. mutans UA159 Antigen I/II, full length recombinant construct) (Streptococcus mutans UA159, UniProt P23504 39-1562).
T3 construct: also called CG14
T3 sequence (P23504 39-1562): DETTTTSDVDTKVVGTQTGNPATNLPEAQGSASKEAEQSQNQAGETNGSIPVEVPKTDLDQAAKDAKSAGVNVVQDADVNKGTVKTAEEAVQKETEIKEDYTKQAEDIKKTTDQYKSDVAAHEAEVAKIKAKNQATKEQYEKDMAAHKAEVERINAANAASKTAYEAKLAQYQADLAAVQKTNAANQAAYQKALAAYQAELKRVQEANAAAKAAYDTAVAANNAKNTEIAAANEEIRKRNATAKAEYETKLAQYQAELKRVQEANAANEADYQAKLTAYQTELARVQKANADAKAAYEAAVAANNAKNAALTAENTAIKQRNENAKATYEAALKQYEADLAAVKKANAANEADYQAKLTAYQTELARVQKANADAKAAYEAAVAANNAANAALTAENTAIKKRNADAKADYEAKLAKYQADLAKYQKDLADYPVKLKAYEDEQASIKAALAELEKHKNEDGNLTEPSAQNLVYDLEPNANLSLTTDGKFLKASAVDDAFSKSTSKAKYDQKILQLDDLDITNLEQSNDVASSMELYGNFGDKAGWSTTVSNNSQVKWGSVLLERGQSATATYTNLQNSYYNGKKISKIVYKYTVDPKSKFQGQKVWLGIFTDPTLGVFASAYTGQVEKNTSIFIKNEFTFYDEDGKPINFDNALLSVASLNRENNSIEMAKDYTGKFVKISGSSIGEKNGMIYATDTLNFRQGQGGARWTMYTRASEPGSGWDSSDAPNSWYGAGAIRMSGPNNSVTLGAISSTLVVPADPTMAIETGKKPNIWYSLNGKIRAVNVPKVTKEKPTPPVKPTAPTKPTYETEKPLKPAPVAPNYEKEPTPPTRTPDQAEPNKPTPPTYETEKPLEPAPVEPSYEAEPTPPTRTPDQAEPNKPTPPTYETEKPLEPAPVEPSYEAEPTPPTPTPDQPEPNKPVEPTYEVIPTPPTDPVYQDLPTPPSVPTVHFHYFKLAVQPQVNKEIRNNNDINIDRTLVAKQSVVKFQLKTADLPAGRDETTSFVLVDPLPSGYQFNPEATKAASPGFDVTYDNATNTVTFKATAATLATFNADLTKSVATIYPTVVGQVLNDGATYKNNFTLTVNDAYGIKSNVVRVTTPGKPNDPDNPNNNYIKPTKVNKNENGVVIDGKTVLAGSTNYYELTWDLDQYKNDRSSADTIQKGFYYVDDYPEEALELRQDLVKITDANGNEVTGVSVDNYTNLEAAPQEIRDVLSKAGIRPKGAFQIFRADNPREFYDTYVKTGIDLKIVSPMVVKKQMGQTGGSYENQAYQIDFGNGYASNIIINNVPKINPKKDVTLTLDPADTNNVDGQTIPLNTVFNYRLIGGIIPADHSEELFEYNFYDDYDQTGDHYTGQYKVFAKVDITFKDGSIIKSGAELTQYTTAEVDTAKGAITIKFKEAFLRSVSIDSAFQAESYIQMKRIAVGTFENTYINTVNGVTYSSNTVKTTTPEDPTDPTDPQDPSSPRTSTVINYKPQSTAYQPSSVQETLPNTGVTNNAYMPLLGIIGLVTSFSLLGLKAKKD
The description is as above.

Test [5] addresses T4, iSRCR123 (human, UniProt Q9UGM3 102-463).
T4 construct: domain: SRCR123; also called SRCRs; iSRCRs
Kind of test: SPR, analyte over immobilized iSRCR1; quantity and unit not printed beside the number, unit taken from the paragraph's 'nanomolar affinities'.

For test [6], the target named is T4, iSRCR123. Kind of test: SPR, analyte over immobilized iSRCR123; quantity and unit not printed beside the number, told as 'nanomolar affinities'.
In test [7] the target is B4. Nature of the test: SPR, analyte over ligand immobilized on CM5 chip, 1:1 Langmuir model; SPR with calcium; immobilized iSRCR1, not deglycosylated.
Test [8] addresses T1, C123^AgI/II. The test is described as above.
Test [9] addresses T2, A3VP1^AgI/II. Described as above.
The target of test [10] is T3, FL^AgI/II (S. mutans UA159 Antigen …). The description is as above.
The target of test [11] is salivary agglutinin (SAG) (human, UniProt Q9UGM3 20-2413). Nature of the test: SPR, analyte over SAG immobilized on CM5 chip, 1:1 Langmuir model.
salivary agglutinin (SAG), sequence (Q9UGM3 whole entry): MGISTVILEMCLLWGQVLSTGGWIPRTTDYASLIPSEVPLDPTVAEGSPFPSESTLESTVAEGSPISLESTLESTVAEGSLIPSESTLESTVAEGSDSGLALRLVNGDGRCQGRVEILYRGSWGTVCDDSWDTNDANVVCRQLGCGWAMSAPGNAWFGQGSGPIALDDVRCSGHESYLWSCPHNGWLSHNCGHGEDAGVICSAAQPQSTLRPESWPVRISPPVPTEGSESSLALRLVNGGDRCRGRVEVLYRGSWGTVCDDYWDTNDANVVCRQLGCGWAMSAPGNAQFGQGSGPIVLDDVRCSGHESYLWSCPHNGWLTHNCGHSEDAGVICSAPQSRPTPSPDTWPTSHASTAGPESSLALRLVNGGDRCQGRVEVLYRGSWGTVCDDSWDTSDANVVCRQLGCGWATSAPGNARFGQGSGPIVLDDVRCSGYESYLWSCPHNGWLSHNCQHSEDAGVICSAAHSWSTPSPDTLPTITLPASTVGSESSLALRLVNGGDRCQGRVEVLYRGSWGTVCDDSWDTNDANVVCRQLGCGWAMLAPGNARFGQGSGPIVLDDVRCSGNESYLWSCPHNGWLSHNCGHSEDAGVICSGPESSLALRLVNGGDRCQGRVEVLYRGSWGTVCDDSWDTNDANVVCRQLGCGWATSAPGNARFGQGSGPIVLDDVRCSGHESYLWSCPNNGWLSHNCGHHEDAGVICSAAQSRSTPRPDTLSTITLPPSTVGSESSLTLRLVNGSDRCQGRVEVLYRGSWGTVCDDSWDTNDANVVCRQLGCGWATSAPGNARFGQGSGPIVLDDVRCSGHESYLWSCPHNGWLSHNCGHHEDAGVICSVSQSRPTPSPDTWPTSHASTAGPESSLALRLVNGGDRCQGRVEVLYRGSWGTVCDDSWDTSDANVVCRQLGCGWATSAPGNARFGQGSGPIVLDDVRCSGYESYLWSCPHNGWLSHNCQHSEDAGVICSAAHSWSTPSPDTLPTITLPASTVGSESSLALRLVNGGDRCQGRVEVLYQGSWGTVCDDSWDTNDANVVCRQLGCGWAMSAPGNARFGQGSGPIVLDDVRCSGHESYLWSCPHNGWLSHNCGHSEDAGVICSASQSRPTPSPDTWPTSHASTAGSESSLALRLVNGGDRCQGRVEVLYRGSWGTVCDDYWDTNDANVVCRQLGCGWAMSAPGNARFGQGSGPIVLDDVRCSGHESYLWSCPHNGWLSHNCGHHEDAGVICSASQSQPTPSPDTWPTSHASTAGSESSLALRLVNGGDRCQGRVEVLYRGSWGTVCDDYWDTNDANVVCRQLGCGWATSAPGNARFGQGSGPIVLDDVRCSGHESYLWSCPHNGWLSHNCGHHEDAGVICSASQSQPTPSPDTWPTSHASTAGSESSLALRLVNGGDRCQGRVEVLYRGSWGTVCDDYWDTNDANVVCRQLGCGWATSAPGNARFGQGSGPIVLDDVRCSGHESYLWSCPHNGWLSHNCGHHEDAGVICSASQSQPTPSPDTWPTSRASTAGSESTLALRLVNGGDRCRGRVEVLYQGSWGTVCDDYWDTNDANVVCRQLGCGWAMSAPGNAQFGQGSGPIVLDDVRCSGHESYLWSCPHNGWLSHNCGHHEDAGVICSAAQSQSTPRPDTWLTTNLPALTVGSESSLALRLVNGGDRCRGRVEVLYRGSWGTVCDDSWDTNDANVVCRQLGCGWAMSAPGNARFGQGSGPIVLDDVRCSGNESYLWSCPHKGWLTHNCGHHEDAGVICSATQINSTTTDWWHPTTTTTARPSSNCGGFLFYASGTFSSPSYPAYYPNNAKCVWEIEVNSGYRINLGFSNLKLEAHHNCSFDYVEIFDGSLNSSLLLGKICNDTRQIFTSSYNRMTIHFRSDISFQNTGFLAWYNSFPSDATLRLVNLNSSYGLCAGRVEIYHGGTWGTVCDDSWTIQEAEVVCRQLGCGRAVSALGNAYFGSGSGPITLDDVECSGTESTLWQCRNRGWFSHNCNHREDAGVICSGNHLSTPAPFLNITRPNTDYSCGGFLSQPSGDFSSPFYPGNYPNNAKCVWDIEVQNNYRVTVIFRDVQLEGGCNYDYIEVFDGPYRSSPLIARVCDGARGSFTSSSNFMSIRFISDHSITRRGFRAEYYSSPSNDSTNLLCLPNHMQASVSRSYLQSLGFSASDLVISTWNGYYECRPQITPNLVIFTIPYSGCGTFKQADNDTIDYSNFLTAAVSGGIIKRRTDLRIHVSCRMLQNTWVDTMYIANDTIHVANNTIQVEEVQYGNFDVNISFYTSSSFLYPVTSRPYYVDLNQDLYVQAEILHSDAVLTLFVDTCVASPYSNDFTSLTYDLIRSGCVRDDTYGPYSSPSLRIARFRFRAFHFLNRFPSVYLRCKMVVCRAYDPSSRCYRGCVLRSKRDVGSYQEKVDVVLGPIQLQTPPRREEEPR

T4 sequence (Q9UGM3 102-463 limits assumed): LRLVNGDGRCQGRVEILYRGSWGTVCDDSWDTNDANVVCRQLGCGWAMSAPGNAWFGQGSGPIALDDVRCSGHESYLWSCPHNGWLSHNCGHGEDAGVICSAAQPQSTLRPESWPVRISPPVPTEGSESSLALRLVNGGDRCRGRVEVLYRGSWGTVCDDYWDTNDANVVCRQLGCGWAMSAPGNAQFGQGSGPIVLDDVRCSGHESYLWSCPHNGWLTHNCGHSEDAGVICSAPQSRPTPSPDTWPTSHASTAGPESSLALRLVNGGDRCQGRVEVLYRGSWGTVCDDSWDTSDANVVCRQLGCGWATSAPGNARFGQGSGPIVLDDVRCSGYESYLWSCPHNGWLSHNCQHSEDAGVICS

As a reminder, the Kd is the free concentration of one partner at which half of the binding sites on the other are occupied at equilibrium, for simple one-to-one binding. As a reminder, the koff is the first-order rate constant of dissociation. As a reminder, the kon is the second-order rate constant of association. On to B1, for which, in test [1], the Ka was found to be 7.97e+06 M⁻¹, the Kd was determined as 125 nM, the koff was 0.00104 s⁻¹ and the kon is 8300 M⁻¹ s⁻¹. Also, in the test with C123^AgI/II [2], the Ka worked out at 48100 M⁻¹, binding was characterised by a dissociation constant (Kd) of 20800 nM, the koff came out at 0.0246 s⁻¹ and the on-rate (kon) was 1180 M⁻¹ s⁻¹. Besides, in the test with A3VP1^AgI/II [3], the Ka was found to be 1.92e+06 M⁻¹; the affinity, expressed as Kd, was 520 nM; the koff is 0.00274 s⁻¹; the kon came out at 5270 M⁻¹ s⁻¹. Moreover, in test [4], the Ka worked out at 865000 M⁻¹, the equilibrium dissociation constant (Kd) was found to be 1160 nM, the koff stood at 0.0575 s⁻¹ and the kon was 49700 M⁻¹ s⁻¹.
On to B2, for which the Kd is 5.68 nM with iSRCR123 [5]; 1.2 nM in the test with iSRCR123 [6]; 256 nM in test [7]; 151 nM in the test with C123^AgI/II [8]; 117 nM in the test with A3VP1^AgI/II [9]; 7.69 nM in [10]. Also, the Ka came out at 3.91e+06 M⁻¹ in [7], 6.46e+06 M⁻¹ with C123^AgI/II [8], 8.57e+06 M⁻¹ in the test with A3VP1^AgI/II [9] and 1.31e+08 M⁻¹ in test [10]. Moreover, the koff in test [7] was 0.00237 s⁻¹; with C123^AgI/II [8], 0.00232 s⁻¹; with A3VP1^AgI/II [9] it was 0.00327 s⁻¹; in test [10], 0.000976 s⁻¹. Besides, the kon in [7] was found to be 9250 M⁻¹ s⁻¹; in the test with C123^AgI/II [8] it was 15400 M⁻¹ s⁻¹; with A3VP1^AgI/II [9], 28000 M⁻¹ s⁻¹; in test [10], 127000 M⁻¹ s⁻¹.
In test [1], B3 gave a Ka of 5.24e+06 M⁻¹, a dissociation constant (Kd) of 191 nM, a koff of 0.00132 s⁻¹ and a kon of 6920 M⁻¹ s⁻¹. In the test with C123^AgI/II [2], this molecule had a Ka of 458000 M⁻¹, a Kd of 2180 nM, a koff of 0.00658 s⁻¹ and a kon of 3010 M⁻¹ s⁻¹. In the test with A3VP1^AgI/II [3], this molecule yielded a Ka of 1.22e+06 M⁻¹, a Kd of 818 nM, a koff of 0.00333 s⁻¹ and an on-rate constant (kon) of 4070 M⁻¹ s⁻¹. In test [4], the Ka is 6.82e+06 M⁻¹, the Kd turned out to be 147 nM, the koff came to 0.000464 s⁻¹ and the kon was 3160 M⁻¹ s⁻¹.
In [11], B4 yielded a Ka of 1.63e+08 M⁻¹, a Kd of 6.15 nM, a koff of 0.00197 s⁻¹ and a kon of 320000 M⁻¹ s⁻¹.
